Data published in patent US20110257105A1 (CARA THERAPEUTICS, published 2011).
Square brackets hold non-standard residues; d marks the D form. Ends that are not written are not given here. dAgb = N=C(N)NCC[C@@H](N)C(=O)O; dNle = CCCC[C@@H](N)C(=O)O

B1: Compound (3): D-Phe-D-Phe-D-Nle-D-Arg-D-Pro-OH (peptide)
peptide: [dF][dF][dNle][dR][dP]-OH
modifications: N-terminus assumed
SMILES: CCCC[C@@H](NC(=O)[C@@H](Cc1ccccc1)NC(=O)[C@H](N)Cc1ccccc1)C(=O)N[C@H](CCCNC(=N)N)C(=O)N1CCC[C@@H]1C(=O)O
B2: Compound (51): 1N,4N-bis-(D-Phe-D-Phe-D-Leu-D-Nar)-4-amino-4-carboxylic piperidine (peptide)
peptide: [dF][dF][dL][dAgb]-{4‑amino‑4‑carboxylic piperidine}
modifications: also: two identical chains joined through C-termini to N1 and 4-amino group of piperidine scaffold
B3: Compound (49): 1N,4N-bis-[D-Phe-D-Phe-D-Leu-(iPr)D-Orn]-4-amino-4-carboxylic-piperidine (peptide)
peptide: [dF][dF][dL][dOrn(iPr)]-{4‑amino‑4‑carboxylic piperidine}
modifications: also: two identical chains joined through C-termini to N1 and 4-amino group of piperidine scaffold
B4: Compound (50): 1N,4N-bis-[D-Phe-D-Phe-D-Leu-D-Dap(amidino)]-4-amino-4-carboxylic piperidine (peptide)
peptide: [dF][dF][dL][dDap(amidino)]-{4‑amino‑4‑carboxylic piperidine}
modifications: also: two identical chains joined through C-termini to N1 and 4-amino group of piperidine scaffold
B5: Compound (52): D-Phe-D-Phe-D-Leu-(D-Lys-GlyLactam)2-D-Leu-D-Phe-D-Phe (peptide)
peptide: [dF][dF][dL][dK]G
modifications: not fully specified (bridges); printed as D-Phe-D-Phe-D-Leu-(D-Lys-GlyLactam)2-D-Leu-D-Phe-D-Phe; also: two chains joined through (D-Lys-Gly lactam)2 linker

The molecules below were run against mouse kappa opioid receptor (mouse, UniProt P33534 1-380) (assay: cell-based or functional assay).
mouse kappa opioid receptor, sequence (P33534 whole entry): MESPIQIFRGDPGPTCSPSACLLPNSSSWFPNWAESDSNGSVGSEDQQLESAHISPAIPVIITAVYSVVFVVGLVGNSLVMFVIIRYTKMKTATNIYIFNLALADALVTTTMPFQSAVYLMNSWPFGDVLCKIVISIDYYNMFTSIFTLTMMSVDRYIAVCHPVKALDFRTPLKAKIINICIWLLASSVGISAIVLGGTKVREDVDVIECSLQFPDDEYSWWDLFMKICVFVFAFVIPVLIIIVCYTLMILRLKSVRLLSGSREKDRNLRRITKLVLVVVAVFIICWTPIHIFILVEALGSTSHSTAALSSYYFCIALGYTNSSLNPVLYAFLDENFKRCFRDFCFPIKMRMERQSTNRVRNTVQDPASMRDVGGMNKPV

First: B1
Second: B2
The “EC50 (nM), cAMP inhibition in R1.G1 cells” value of the first is 11-fold lower: 9.05 nM for the first, 95.8 nM for the second.

Going from B3 to B4, the “EC50 (nM), cAMP inhibition in R1.G1 cells” value rises from 1.83 nM to 56.7 nM (31-fold).

First: B1
Second: B2
The “Efficacy(%), cAMP inhibition in R1.G1 cells” value of the first is higher: 88% for the first, 60% for the second.

Compared with B3, B4 is higher in “Efficacy(%), cAMP inhibition in R1.G1 cells” value: 50% for the first, 77% for the second.

The molecules below were run against mouse kappa opioid receptor (mouse) (UniProt P33534) (assay: cell-based or functional assay).
mouse kappa opioid receptor (mouse), sequence (P33534 whole entry): as above

Going from “Compound (39): D-Phe-D-Phe-D-Leu-D-Orn-[eLys(D-Orn-D-Leu-H)]-OH (peptide)” to B5, the EC50 (nM), cAMP inhibition in R1.G1 cells falls from 67.3 nM to 13.8 nM (4.9-fold).

First: Compound (39): D-Phe-D-Phe-D-Leu-D-Orn-[eLys(D-Orn-D-Leu-H)]-OH (peptide)
Second: B5
The Efficacy(%), cAMP inhibition in R1.G1 cells of the first is lower: 35% for the first, 76% for the second.
